The values below come from the RNAGym collection of RNA variant scans (doi:10.7554/elife.80360).

Sequences and labels used below:
B1: Hairpin Ribozyme (parent)
chain: GUCCUCUUUCACGUGCGCGUGAAAGAGAGAAGUGAACCAGAGAAACACACGUUGUGGUAUAUUACCUGGUA

Variants of B1 are the subject of the data set. The experiment in a line: self-cleavage, relative activity (ratio to wild type); higher = more cleavage; co-transcriptional.
For the variant C16A A26G, the self-cleavage came to 0.911.

As for C16A A22G, the self-cleavage was determined as 0.617.

With G15C G29A, the self-cleavage turned out to be 0.148. For G15C U20C the value was 0.997; for G15C U20G, 0.828; for G15A G19C, 0.856. The result for G15A G19A reads 0.898.

On to G15A G19U, for which the self-cleavage stood at 0.942. Consider U14G G19U, for which the self-cleavage came to 0.893.

Take G15U G25C: the self-cleavage came to 0.705. The result for G15C G32A reads 0.263; that for G15C G32C, 0.0609; that for G15C G32U, 0.113. The result for G15U G19A reads 0.968.

In the case of U14G G69U, the self-cleavage amounted to 0.2.

Take G15A A30C: the self-cleavage amounted to 0.141. For G15A A30U the value was 0.109. For C16U G25A the value was 0.668; for G15U G68C, 0.137; for G15U A22U, 0.996. The result for G15C A49U reads 0.102.

For the variant G15C A49C, the self-cleavage came out at 0.101.

Consider G15C A49G, for which the self-cleavage came out at 0.523.

Regarding C16G U20C, the self-cleavage was 0.868. The result for C16U G27C reads 0.202; that for G15C U62G, 0.134. For U14G G57A the value was 0.146; for U14G G27C, 0.0943; for G15A A47U, 0.17.

For the variant G15A A47G, the self-cleavage was found to be 0.124.

Turning to G15C A44C, the self-cleavage was determined as 0.0713.

As for G15C A44U, the self-cleavage was found to be 0.18. For C16A A45U the value was 0.176; for G15A A71U, 0.785; for G15C U67C, 0.2.

Turning to G15C U67A, the self-cleavage was 0.112. For G15A C65U the value was 0.235. With G15A C65G, the self-cleavage is 0.326. For C16A C18A the value was 1.14; for G15A A49C, 0.0193; for C16G C37A, 0.244. The result for C16U A71C reads 1.41; that for G15C G51C, 1.23; that for G15C G51A, 0.796. The result for G15C A47G reads 0.108; that for G15C A43C, 0.225; that for C16G A26G, 0.766. For C16G A26C, the self-cleavage turned out to be 0.388.

Turning to G15C G17C, the self-cleavage was 0.668. For G15C G17A the value was 1.03; for G15A C66G, 0.0886; for C16G C46U, 0.0715.

For C16A U58A, the self-cleavage amounted to 0.597. On to G15A G17A, for which the self-cleavage came to 0.87. For C16G U58C, the self-cleavage was 1.06. For the variant G15A G27U, the self-cleavage came to 0.373.

Regarding G15U U67A, the self-cleavage came out at 0.206. For G15C A61C the value was 0.0894; for C16G G56A, 0.073; for G15C G54C, 0.404. The result for G15C G54A reads 0.532. With C16A G34C, the self-cleavage came out at 1.44. For G15U U33G the value was 0.18; for G15U U33A, 0.248. With G15A A22C, the self-cleavage is 0.821.

As to G15A A22U, the self-cleavage was found to be 0.699.

In the case of G15A A22G, the self-cleavage was found to be 1.11.

On to G15A C50A, for which the self-cleavage came to 0.28. The result for G15A C50U reads 0.356; that for G15A C50G, 0.219. The result for C16A A49G reads 0.389; that for C16A A49U, 0.206. On to C16A A44C, for which the self-cleavage amounted to 0.229. On to U14G G42U, for which the self-cleavage was 0.163. The result for C16U A22G reads 1; that for C16U A22U, 0.972. For G15U C18A the value was 1.07; for G15U C18U, 1.03; for G15A A61U, 0.283. Take G15A A61C: the self-cleavage came out at 0.161. The result for G15A A36U reads 0.673; that for G15U A43C, 0.195; that for U14G G68C, 0.0739. For G15A G69C the value was 0.31; for C16A G25U, 0.589; for G15C U52G, 0.812. For C16G C18A the value was 1.03. In the case of C16A C48U, the self-cleavage came to 0.0945.

On to C16U G17A, for which the self-cleavage was determined as 1.19.

On to U14G U53G, for which the self-cleavage is 0.287. Regarding C16A G57C, the self-cleavage turned out to be 0.127. The result for G15A U62C reads 0.214; that for G15A G21U, 0.841. For C16U C48U the value was 0.179.

For C16U C48G, the self-cleavage worked out at 0.108. On to G15C A71G, for which the self-cleavage was 0.98.

For the variant G15A C16G, the self-cleavage came out at 1.04. The result for G15A C16A reads 0.881. The result for G15A G34C reads 1.23; that for G15A U60G, 0.639. For C16U A47G, the self-cleavage was determined as 0.16. The result for C16U A47C reads 0.567. Regarding C16G A41G, the self-cleavage was 0.593.

As to C16G A41U, the self-cleavage is 1.35. The result for C16A A31U reads 0.0142; that for C16G G25C, 0.302; that for C16G G25U, 0.547. For C16A G27A the value was 0.36. For C16G G34A the value was 0.883; for C16G G34U, 1.34; for G15U G42C, 0.44.

Regarding U14G G34U, the self-cleavage was determined as 1.11. The result for C16G C65A reads 0.976; that for C16G C65U, 0.167. The result for G15C A24C reads 1.15; that for G15C A24G, 0.892. Turning to C16G G51A, the self-cleavage was found to be 0.798.

As for C16G U52G, the self-cleavage was 0.443. C16G U52C: the self-cleavage worked out at 0.718. For G15C A30G the value was 0.198; for G15C A30C, 0.377; for C16A G68C, 0.176. For C16A G68U the value was 0.181; for C16G G29C, 0.141. The result for C16A U33C reads 0.2; that for G15U A44C, 0.145; that for G15A C18A, 1.09. As for C16G A49U, the self-cleavage worked out at 0.221. G15U G29C: the self-cleavage amounted to 0.125. The result for G15A C46U reads 0.147. The result for G15C C66U reads 0.555. For C16G U60A the value was 0.62; for C16G U60C, 1.06. On to C16A G56A, for which the self-cleavage was 0.0316.

Regarding G15U G54C, the self-cleavage was determined as 0.385. For the variant C16G C66U, the self-cleavage came to 0.422.

Consider G15U A71C, for which the self-cleavage came out at 1.53.

On to G15A G40C, for which the self-cleavage worked out at 0.112. Consider G15A G40A, for which the self-cleavage came to 0.306. The result for G15A A44G reads 0.139; that for C16A A71U, 0.776; that for G15C C16G, 1.06. In the case of G15C A35C, the self-cleavage was 0.628.

For the variant G15C A35U, the self-cleavage turned out to be 0.703.

Turning to G15U A24U, the self-cleavage was 0.957.

Consider U14G U60G, for which the self-cleavage amounted to 0.58.

With U14G U60A, the self-cleavage came to 0.641.

In the case of G15U C65A, the self-cleavage came to 1.15. For the variant C16G G57C, the self-cleavage came out at 0.108. The result for G15C C37A reads 0.316. The result for G15C C37U reads 0.592. On to C16U A43U, for which the self-cleavage worked out at 0.134. For C16U A43G the value was 0.0631; for G15C G69U, 0.276.

Consider G15U U60C, for which the self-cleavage turned out to be 1.01. The result for G15A A59G reads 0.111; that for C16A G54A, 0.388. The result for C16G A59G reads 0.17; that for C16A A59C, 0.213. The result for G15U A39U reads 0.544; that for G15A G51A, 1.21; that for G15C U55A, 0.279. For G15C U55C, the self-cleavage is 0.276. On to G15C U55G, for which the self-cleavage was 0.487. The result for C16A C65A reads 0.845; that for C16A C65G, 0.255; that for G15A G25U, 0.573.
